Source: paper PMC3253920 (Biochimica et Biophysica Acta, 2011)

Molecular target: the molecule itself
Experiment: crystal structure

B1: native rat liver glycine N-methyltransferase (enzyme, UniProt P13255 2-293, looked up)
chain: VDSVYRTRSLGVAAEGIPDQYADGEAARVWQLYIGDTRSRTAEYKAWLLGLLRQHGCHRVLDVACGTGVDSIMLVEEGFSVTSVDASDKMLKYALKERWNRRKEPAFDKWVIEEANWLTLDKDVPAGDGFDAVICLGNSFAHLPDSKGDQSEHRLALKNIASMVRPGGLLVIDHRNYDYILSTGCAPPGKNIYYKSDLTKDITTSVLTVNNKAHMVTLDYTVQVPGAGRDGAPGFSKFRLSYYPHCLASFTELVQEAFGGRCQHSVLGDFKPYRPGQAYVPCYFIHVLKKTG
modifications: acetylated N-terminal valine (Val1)
  stoichiometry N: 4
